Data as given in article PMC9411544, “Catalytic innovation underlies independent recruitment of polyketide synthases in cocaine and hyoscyamine biosynthesis” (Nature Communications, 2022).

Test system: CC(C)(COP(=O)(O)OP(=O)(O)OC[C@H]1O[C@@H](n2cnc3c(N)ncnc32)[C@H](O)[C@@H]1OP(=O)(O)O)[C@@H](O)C(=O)NCCC(=O)NCCSC(=O)CC(=O)O
Assay: purified protein
Conditions: sole substrate, 100 mM potassium phosphate, pH 8.0, 30 °C, 20-1000 μM malonyl-CoA

**Q.** How did the Km (2 ng/μL enzyme, 8 min) turn out when EnPKS2 (Erythroxylum novogranatense) was run?
**A.** 50.54 µM

**Q.** What about the kcat (2 ng/μL enzyme, 8 min) of the same substance?
**A.** 0.45 s⁻¹

**Q.** What does the source list for EnPKS1 (Erythroxylum novogranatense)?
**A.** Km (1 ng/μL enzyme, 5 min): 112.90 µM; kcat (1 ng/μL enzyme, 5 min): 1.89 s⁻¹

**Q.** With AaPYKS1 (Anisodus acutangulus) as the substance, how does the Km (1 ng/μL enzyme, 5 min) read?
**A.** 70.38 µM

**Q.** What about the kcat (1 ng/μL enzyme, 5 min) of the same substance?
**A.** 2.24 s⁻¹
